Reference: article doi:10.1101/2025.08.31.673358

Molecular target: Fragile X messenger ribonucleoprotein (FMRP) (human (endogenous in iPSC-derived NPCs)) (UniProt Q06787)
Assay: co-IP

Substance: histone H3 di-methylated at lysine 79 (H3K79me2) (from UniProt P68431 1-136) (natural protein)
- percent of input co-immunoprecipitated: 20%
